The record followed here is patent US20100150834A1 (BURNHAM INSTITUTE, published 2010).

No end group written: not given here.

The target of assay [1] is T1, EphB4 (receptor of Table 1) (Mus musculus (Mouse), UniProt P54761 16-539).
T1 sequence: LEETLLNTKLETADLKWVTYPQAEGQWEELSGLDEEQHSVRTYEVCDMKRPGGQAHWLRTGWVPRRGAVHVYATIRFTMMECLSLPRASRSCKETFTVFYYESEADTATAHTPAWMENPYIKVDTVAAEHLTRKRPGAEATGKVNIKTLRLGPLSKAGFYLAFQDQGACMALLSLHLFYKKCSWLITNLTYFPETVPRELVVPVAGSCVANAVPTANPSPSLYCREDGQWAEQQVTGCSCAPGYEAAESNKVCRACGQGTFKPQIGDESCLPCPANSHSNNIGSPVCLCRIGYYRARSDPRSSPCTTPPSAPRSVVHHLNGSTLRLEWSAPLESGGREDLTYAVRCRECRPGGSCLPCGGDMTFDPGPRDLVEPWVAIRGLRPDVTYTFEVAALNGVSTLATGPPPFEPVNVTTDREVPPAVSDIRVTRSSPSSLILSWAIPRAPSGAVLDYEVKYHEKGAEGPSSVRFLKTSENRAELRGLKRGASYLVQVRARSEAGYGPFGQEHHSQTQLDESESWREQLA
Kind of assay: inhibition of ephrin-B2 AP binding to EphB4 (panning receptor); biotinylated peptide.

The target in assay [2] is EphB1 (receptor of Table 1). Kind of assay: EphB receptor specificity panel (% binding).
Assay [3] addresses EphB2 (receptor of Table 1). Kind of assay: EphB receptor specificity panel (% binding).
The target of assay [4] is EphB3 (receptor of Table 1). Kind of assay: EphB receptor specificity panel (% binding).
Assay [5] has as its target T1, EphB4 (receptor of Table 1). Kind of assay: EphB receptor specificity panel (% binding).
In assay [6] the target is EphB6 (receptor of Table 1). Kind of assay: EphB receptor specificity panel (% binding).
Assay [7] addresses T1, EphB4 (receptor of Table 1). Kind of assay: inhibition of ephrin-B2 AP binding to EphB4 (panning receptor); non-biotinylated peptide.
Assay [8] deals with EphB1 (receptor of Table 1). Kind of assay: inhibition of ephrin-B2 AP binding to EphB1 (panning receptor).
Target sequence in this assay (Q8CBF3 18-540): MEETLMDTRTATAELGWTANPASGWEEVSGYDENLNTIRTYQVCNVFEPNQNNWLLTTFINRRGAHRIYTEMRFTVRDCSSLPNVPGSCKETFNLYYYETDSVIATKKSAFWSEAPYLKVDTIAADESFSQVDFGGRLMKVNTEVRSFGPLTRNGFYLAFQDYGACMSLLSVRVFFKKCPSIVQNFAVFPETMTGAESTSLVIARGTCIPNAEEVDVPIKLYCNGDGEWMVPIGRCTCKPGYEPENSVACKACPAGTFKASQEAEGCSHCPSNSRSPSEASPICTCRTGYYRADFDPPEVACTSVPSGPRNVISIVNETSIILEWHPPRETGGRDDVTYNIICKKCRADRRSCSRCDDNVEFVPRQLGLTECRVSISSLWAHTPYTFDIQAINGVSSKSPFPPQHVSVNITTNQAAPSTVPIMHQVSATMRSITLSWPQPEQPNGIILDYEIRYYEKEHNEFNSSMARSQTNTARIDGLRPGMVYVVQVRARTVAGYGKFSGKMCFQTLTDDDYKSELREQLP
The target of the next assay is T2, murine EphB4 ectodomain (murine, UniProt P54761 16-539).
T2 construct: extracellular domain; Coated on wells; also called immobilized EphB4 receptor ectodomain
T2 sequence (looked up): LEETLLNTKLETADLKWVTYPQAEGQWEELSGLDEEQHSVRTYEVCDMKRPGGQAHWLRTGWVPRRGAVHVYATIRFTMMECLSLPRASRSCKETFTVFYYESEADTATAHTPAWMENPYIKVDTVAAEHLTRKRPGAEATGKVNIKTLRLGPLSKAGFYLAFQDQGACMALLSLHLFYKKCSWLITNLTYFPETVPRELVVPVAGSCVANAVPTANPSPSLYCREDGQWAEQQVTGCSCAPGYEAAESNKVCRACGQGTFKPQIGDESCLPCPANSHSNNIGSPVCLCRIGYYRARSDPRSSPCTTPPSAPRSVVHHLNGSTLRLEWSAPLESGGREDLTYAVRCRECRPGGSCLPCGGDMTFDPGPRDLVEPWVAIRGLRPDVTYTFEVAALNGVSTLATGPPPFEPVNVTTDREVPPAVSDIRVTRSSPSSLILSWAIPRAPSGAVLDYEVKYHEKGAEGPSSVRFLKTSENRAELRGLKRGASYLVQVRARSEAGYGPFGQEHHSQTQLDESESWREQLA
Kind of assay: inhibition of murine ephrin-B2 AP binding to immobilised murine EphB4 ectodomain.

The target of assay [9] is T3, murine EphB4-Alkaline Phosphatase (murine, UniProt P54761 16-539).
T3 construct: also called EphB4-AP; EphB4 AP; not shown: alkaline phosphatase
T3 sequence (looked up): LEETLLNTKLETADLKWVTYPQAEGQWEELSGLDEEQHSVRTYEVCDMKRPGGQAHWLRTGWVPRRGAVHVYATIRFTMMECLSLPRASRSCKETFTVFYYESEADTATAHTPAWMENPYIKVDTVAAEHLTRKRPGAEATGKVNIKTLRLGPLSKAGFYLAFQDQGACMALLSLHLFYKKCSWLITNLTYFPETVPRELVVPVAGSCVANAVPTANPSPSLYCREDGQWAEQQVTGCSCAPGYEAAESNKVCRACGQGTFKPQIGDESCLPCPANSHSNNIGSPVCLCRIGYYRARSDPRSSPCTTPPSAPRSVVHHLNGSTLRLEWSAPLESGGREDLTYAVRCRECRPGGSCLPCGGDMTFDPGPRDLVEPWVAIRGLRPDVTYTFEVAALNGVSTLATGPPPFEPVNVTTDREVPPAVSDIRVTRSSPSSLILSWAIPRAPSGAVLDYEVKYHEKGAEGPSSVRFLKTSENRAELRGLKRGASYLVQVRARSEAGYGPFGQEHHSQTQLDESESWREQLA
Kind of assay: competition ELISA: murine EphB4-AP binding to immobilised murine ephrin-B2-Fc. (In general: ELISA stands for enzyme-linked immunosorbent assay.)

In assay [10] the target is EphB2 (receptor of Table 1). Kind of assay: inhibition of ephrin-B2 AP binding to EphB2 (panning receptor); biotinylated and non-biotinylated peptide gave the same result.
For assay [11], the target named is T1, EphB4 (receptor of Table 1). Kind of assay: inhibition of ephrin-B2 AP binding to EphB4 (panning receptor).
The target of assay [12] is T3, murine EphB4-Alkaline Phosphatase. Kind of assay: ELISA binding curve: ephrin-B2 Fc immobilised, increasing volumes of murine EphB4 AP, OD405; one experiment.
Assay [13] has as its target EphB2 (receptor of Table 1). Kind of assay: inhibition of ephrin-B2 AP binding to EphB2 (panning receptor).
The target of assay [14] is EphB1 (receptor of Table 1). Kind of assay: inhibition of ephrin-B2 AP binding to EphB1 (panning receptor); biotinylated and non-biotinylated peptide gave the same result.
Target sequence in this assay (Q8CBF3 18-540): as the sequence (Q8CBF3 18-540) above
Assay [15] addresses T1, EphB4 (receptor of Table 1). Kind of assay: inhibition of ephrin-B2 AP binding to EphB4 (panning receptor); limited by solubility.

B1: biotinylated TNYLFSPNGPIA peptide (SEQ ID NO:24) (peptide)
peptide: TNYLFSPNGPIA
modifications: also: biotin, position not given here
notes: Footnote g: the ~50 µM value was obtained with the biotinylated peptide
B1: in assay [1], the IC50 (as a rule, the concentration that gives 50% inhibition) was approximately 50 µM.

As for TNYLFSPNGPIA (Panned on EphB4; non-biotinylated form) [TNYLFSPNGPIA peptide (SEQ ID NO:24)], the “% Binding” value in [2] turned out to be 5%; in assay [3] it was 3%; in [4], 3%; in assay [5], 100%; in assay [6], 7%. In assay [7], this molecule returned a half-maximal inhibitory concentration (IC50) of 150 µM.

Regarding AHTFPYPHPKPH (Panned on EphB1) [AHTFPYPHPKPH peptide (SEQ ID NO:3)], the “% Binding” value amounted to 100% in assay [2]; 4% in [3]; 8% in [4]; 1% in [5]; 0% in assay [6]. The IC50 in [8] is approximately 150 µM.

For TNYLFSPNGPIARAW (Synthetic, not biotinylated) [TNYL-RAW peptide TNYLFSPNGPIARAW (SEQ ID NO:39)], the half-maximal inhibitory concentration (IC50) is approximately 0.04 µM with murine EphB4 ectodomain and 0.016 µM in assay [9].

B2: SNEWIQPRLPQH peptide (SEQ ID NO:18) (peptide)
peptide: SNEWIQPRLPQH
notes: Panned on EphB2; Footnote e: biotinylated and non-biotinylated peptides gave the same IC50
Consider B2, for which the concentration for half-maximal inhibition (IC50) in assay [10] was approximately 15 µM.

On to DHNHNLYNPWRL (Panned on EphB4) [DHNHNLYNPWRL peptide (SEQ ID NO:21)], for which the “% Binding” value came out at 9% in [2]; 8% in [3]; 9% in [4]; 100% in [5]; 7% in assay [6]. The molecule further yielded a 50% inhibitory concentration (IC50) in assay [11] of approximately 200 µM.

B3: ephrin-B2 Fc (Example 7) (Fc fusion, not shown: a dimerising Fc or GST; small tags and cut ends)
chain: RSIVLEPIYWNSSNSKFLPGQGLVLYPQIGDKLDIICPKVDSKTVGQYEYYKVYMVDKDQADRCTIKKENTPLLNCARPDQDVKFTIKFQEFSPNLWGLEFQKNKDYYIISTSNGSLEGLDNQEGGVCQTRAMKILMKVGQDASSAGSARNHGPTRRPELEAGTNGRSSTTSPFVKPNPGSSTDGNSAGHSGNNLLGSEVALFA
notes: also called ephrin B2 Fc protein; ephrin B2 Fc fusion protein
As for B3, the Kd (usually the concentration at which binding is half-saturated) in [12] was 0.0006 µM.

As for NPVIGPIQRAWT (Panned on EphB4) [NPVIGPIQRAWT peptide (SEQ ID NO:27)], the “% Binding” value in assay [2] is 1%; in [3] it was 0%; in assay [4], 4%; in [5], 100%; in assay [6], 0%. The same molecule returned a half-maximal inhibitory concentration (IC50) in assay [11] of more than 500 µM.

In the case of FSPQGPAARNFA (Panned on EphB4) [FSPQGPAARNFA peptide (SEQ ID NO:25)], the “% Binding” value was found to be 13% in assay [2]; 8% in assay [3]; 11% in assay [4]; 100% in assay [5]; 11% in [6]. For the same molecule, the 50% inhibitory concentration (IC50) in [11] is more than 600 µM.

As to NYLFSPNGPIARAW [NYL-RAW peptide NYLFSPNGPIARAW (SEQ ID NO:40)], the half-inhibitory concentration (IC50) with murine EphB4 ectodomain is approximately 0.04 µM.

With LFSPNGPIARAW [L-RAW peptide LFSPNGPIARAW (SEQ ID NO:42)], the IC50 with murine EphB4 ectodomain was more than 10 µM.

SHWPISPYSLLS (Panned on EphB2) [SHWPISPYSLLS peptide (SEQ ID NO:14)]: the “% Binding” value came out at 39% in assay [2]; 100% in [3]; 9% in assay [4]; 4% in assay [5]; 8% in assay [6]. Besides, the half-maximal inhibitory concentration (IC50) in assay [13] was more than 100 µM.

In the case of WHWTIEPFAITS (Panned on EphB2) [WHWTIEPFAITS peptide (SEQ ID NO:8)], the “% Binding” value was determined as 99% in [2]; 100% in assay [3]; 22% in [4]; 20% in [5]; 45% in assay [6]. The half-maximal inhibitory concentration (IC50) in assay [13] is more than 100 µM.

B4: EWLSPNLAPSVR peptide (SEQ ID NO:1) (peptide)
peptide: EWLSPNLAPSVR
notes: Panned on EphB1; Footnote e: biotinylated and non-biotinylated peptides gave the same IC50
In the case of B4, the “% Binding” value stood at 100% in [2]; 2% in [3]; 1% in [4]; 1% in assay [5]; 0% in [6]. Further, the IC50 in assay [14] was approximately 10 µM.

DHWRILPFSLSS (Panned on EphB2) [DHWRILPFSLSS peptide (SEQ ID NO:10)]: the “% Binding” value is 53% in [2]; 100% in assay [3]; 4% in [4]; 1% in assay [5]; 3% in assay [6]. Further, in assay [13], the IC50 is more than 100 µM.

On to TYFDFQAWSIRA (Panned on EphB4) [TYFDFQAWSIRA peptide (SEQ ID NO:22)], for which the “% Binding” value in assay [2] was found to be 10%; in assay [3] it was 21%; in assay [4], 18%; in [5], 100%; in assay [6], 30%. Besides, in [15], the IC50 was more than 50 µM.

On to YLFSPNGPIARAW [YL-RAW peptide YLFSPNGPIARAW (SEQ ID NO:41)], for which the IC50 with murine EphB4 ectodomain is approximately 0.04 µM.
